Reference: PMC6593408

Experiments:
Assay in all cases: EMSA
Conditions in all cases: EMSA: pKa-matched buffers (ethanolamine-CAPSO pH 9.6, Tris-acetate pH 8.0, bis-Tris-ACES pH 6.7), 155 mM NaCl, 5 nM DNA, 2.5-20 or 40 uM protein, 30 min room …
[1] = target: T1, DsbA (Staphylococcus aureus USA300 LAC) (UniProt A0A0H2XFS3)
T1 sequence: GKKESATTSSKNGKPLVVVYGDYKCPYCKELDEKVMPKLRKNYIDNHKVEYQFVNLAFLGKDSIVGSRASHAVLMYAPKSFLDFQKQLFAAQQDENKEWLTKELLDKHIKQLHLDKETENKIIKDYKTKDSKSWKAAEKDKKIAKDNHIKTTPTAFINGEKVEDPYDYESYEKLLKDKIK

[2] = target: T2, 0100 (Csa1A) (Staphylococcus aureus USA300 LAC) (UniProt Q2FKG1)
T2 sequence: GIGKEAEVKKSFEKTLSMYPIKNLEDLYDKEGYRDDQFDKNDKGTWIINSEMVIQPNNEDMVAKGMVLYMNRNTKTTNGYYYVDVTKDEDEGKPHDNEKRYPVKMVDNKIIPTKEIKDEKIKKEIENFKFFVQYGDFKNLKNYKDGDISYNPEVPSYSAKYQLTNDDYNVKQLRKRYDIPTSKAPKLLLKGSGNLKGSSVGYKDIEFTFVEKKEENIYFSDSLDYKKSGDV

[3] = target: T3, CopL (0079) (Staphylococcus aureus USA300 LAC) (UniProt A0A0H2XFS1)
T3 sequence: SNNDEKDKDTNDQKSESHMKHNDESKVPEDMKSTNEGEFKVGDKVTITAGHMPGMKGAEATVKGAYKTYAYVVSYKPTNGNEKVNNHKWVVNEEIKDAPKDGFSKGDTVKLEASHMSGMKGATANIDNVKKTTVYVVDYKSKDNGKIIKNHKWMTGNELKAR

Measured: binding

GTTCATTATGAAGTCCCTCCAAAAATCATTTGATAATATAGTTTACAGCTATAATTGTAAACGCTATCATAAAATGTAACAATATCTTTTTGAAAATTGTAGTCATATTTATGTATAATTAATGAAAATGTTTTTCAAAATCAATAGAAATGGAGTGAGTAAGGTGTATTACATCGCAATCGATATTGGAGGCACTCAAATTAAATCGGCAGTTATTGATAAGCAATTGAATATGTTTGACTATCAACAAATATCAACG (double strand) [259-bp nanA promoter probe]
binds: all assays above
